Laboratory results reported in paper PMC10397247.
Read-outs that look alike come from different tables or passages of the source. Values belong to the binder of their own block, whether it stands above or below them.

Assays:
O15-bP = molecular target: T1, O15-bP; test: two-hybrid library CCNG1;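 note: natural log of median RNA to DNA barcode read ratio; higher means stronger binding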
T1 chain: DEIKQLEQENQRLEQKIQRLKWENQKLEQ

O5-bP = molecular target: T2, O5-bP; test: two-hybrid library CCNG1;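 note: natural log of median RNA to DNA barcode read ratio; higher means stronger binding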
T2 chain: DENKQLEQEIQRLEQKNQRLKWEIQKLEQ

O4-bP = molecular target: T3, O4-bP; test: two-hybrid library CCNG1;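 note: natural log of median RNA to DNA barcode read ratio; higher means stronger binding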
T3 chain: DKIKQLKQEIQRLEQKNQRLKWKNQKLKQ

O12-bP = molecular target: T4, O12-bP; test: two-hybrid library CCNG1;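 note: natural log of median RNA to DNA barcode read ratio; higher means stronger binding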
T4 chain: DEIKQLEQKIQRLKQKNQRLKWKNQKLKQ

O13-bP = molecular target: T5, O13-bP; test: two-hybrid library CCNG1;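 note: natural log of median RNA to DNA barcode read ratio; higher means stronger binding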
T5 chain: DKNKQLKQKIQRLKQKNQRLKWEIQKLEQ

O8-bP = molecular target: T6, O8-bP; test: two-hybrid library CCNG1;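 note: natural log of median RNA to DNA barcode read ratio; higher means stronger binding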
T6 chain: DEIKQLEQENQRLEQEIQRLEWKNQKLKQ

O7-bP = molecular target: T7, O7-bP; test: two-hybrid library CCNG1
T7 chain: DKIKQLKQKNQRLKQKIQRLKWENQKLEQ

O9-bP = molecular target: T8, O9-bP; test: two-hybrid library CCNG1
T8 chain: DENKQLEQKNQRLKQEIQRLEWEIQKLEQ

O3-bP = molecular target: T9, O3-bP; test: two-hybrid library CCNG1
T9 chain: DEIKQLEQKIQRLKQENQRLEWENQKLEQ

O11-bP = molecular target: T10, O11-bP; test: two-hybrid library CCNG1
T10 chain: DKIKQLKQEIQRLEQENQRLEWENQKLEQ

O14-bP = molecular target: T11, O14-bP; test: two-hybrid library CCNG1
T11 chain: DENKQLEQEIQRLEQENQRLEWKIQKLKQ

O16-bP = molecular target: T12, O16-bP; test: two-hybrid library CCNG1
T12 chain: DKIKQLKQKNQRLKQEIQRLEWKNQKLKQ

O10-bP = molecular target: T13, O10-bP; test: two-hybrid library CCNG1
T13 chain: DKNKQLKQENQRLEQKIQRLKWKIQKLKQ

O6-bP = molecular target: T14, O6-bP; test: two-hybrid library CCNG1
T14 chain: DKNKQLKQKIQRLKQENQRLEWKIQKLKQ

O2-bP = molecular target: T15, O2-bP; test: two-hybrid library CCNG1
T15 chain: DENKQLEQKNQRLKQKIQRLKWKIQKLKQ

P6mSN = molecular target: T16, P6mSN; test: two-hybrid library CCNG1
T16 chain: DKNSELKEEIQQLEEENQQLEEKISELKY

P4mSN = molecular target: T17, P4mSN; test: two-hybrid library CCNG1
T17 chain: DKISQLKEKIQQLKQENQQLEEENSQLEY

P8mSN = molecular target: T18, P8mSN; test: two-hybrid library CCNG1
T18 chain: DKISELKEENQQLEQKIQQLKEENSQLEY

P9mSN = molecular target: T19, P9mSN; test: two-hybrid library CCNG1
T19 chain: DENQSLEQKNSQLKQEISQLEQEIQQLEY

P2mSN = molecular target: T20, P2mSN; test: two-hybrid library CCNG1
T20 chain: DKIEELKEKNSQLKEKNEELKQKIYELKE

P1mSN = molecular target: T21, P1mSN; test: two-hybrid library CCNG1
T21 chain: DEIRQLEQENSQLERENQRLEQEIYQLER

P5mSN = molecular target: T22, P5mSN; test: two-hybrid library CCNG1
T22 chain: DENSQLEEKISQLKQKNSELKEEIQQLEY

P11mSN = molecular target: T23, P11mSN; test: two-hybrid library CCNG1
T23 chain: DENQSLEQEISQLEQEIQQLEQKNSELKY

P7mSN = molecular target: T24, P7mSN; test: two-hybrid library CCNG1
T24 chain: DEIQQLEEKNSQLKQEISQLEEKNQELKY

P12mSN = molecular target: T25, P12mSN; test: two-hybrid library CCNG1
T25 chain: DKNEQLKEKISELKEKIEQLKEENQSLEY

P3mSN = molecular target: T26, P3mSN; test: two-hybrid library CCNG1
T26 chain: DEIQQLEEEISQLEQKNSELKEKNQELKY

4H3015-AA = molecular target: T27, 4H3015-AA; test: two-hybrid library CCmax; conditions: mean of both orientations
T27 chain: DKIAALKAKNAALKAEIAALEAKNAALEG

4H56-AA = molecular target: T28, 4H56-AA; test: two-hybrid library CCmax; conditions: mean of both orientations
T28 chain: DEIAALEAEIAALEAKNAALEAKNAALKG

4H2124-AA = molecular target: T29, 4H2124-AA; test: two-hybrid library CCmax
T29 chain: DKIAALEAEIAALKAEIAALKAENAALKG

4H2931-AA = molecular target: T30, 4H2931-AA; test: two-hybrid library CCmax; conditions: mean of both orientations
T30 chain: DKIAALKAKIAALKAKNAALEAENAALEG

4H2165-AA = molecular target: T31, 4H2165-AA; test: two-hybrid library CCmax; conditions: mean of both orientations
T31 chain: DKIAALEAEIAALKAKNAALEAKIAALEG

4H1765-AA = molecular target: T32, 4H1765-AA; test: two-hybrid library CCmax
T32 chain: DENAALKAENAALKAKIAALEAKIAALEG

4H2774-AA = molecular target: T33, 4H2774-AA; test: two-hybrid library CCmax; conditions: mean of both orientations
T33 chain: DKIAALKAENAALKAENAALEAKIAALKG

4H2592-AA = molecular target: T34, 4H2592-AA; test: two-hybrid library CCmax; conditions: mean of both orientations
T34 chain: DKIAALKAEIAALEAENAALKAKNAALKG

4H_APH = molecular target: T35, 4H_APH; test: two-hybrid library CCmax
T35 chain: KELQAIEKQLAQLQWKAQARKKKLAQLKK

4H2466-AA = molecular target: T36, 4H2466-AA; test: two-hybrid library CCmax; conditions: mean of both orientations
T36 chain: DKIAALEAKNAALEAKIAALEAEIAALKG

4H249-AA = molecular target: T37, 4H249-AA; test: two-hybrid library CCmax; conditions: mean of both orientations
T37 chain: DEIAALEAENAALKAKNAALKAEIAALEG

4H_BCR = molecular target: T38, 4H_BCR; test: two-hybrid library CCmax; conditions: mean of both orientations
T38 chain: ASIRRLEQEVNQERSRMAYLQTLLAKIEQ

4H347-AA = molecular target: T39, 4H347-AA; test: two-hybrid library CCmax; conditions: mean of both orientations
T39 chain: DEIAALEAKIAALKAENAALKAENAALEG

4H_GCN4 = test: two-hybrid library CCmax
4H2253-AA = molecular target: T40, 4H2253-AA; test: two-hybrid library CCmax; conditions: mean of both orientations
T40 chain: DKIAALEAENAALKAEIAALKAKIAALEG

4H3073-AA = molecular target: T41, 4H3073-AA; test: two-hybrid library CCmax; conditions: mean of both orientations
T41 chain: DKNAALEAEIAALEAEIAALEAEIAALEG

4H1828-AA = molecular target: T42, 4H1828-AA; test: two-hybrid library CCmax; conditions: mean of both orientations
T42 chain: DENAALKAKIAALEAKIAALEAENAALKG

GCN2_T = test: two-hybrid library CCmax; conditions: mean of both orientations
4H406-AA = molecular target: T43, 4H406-AA; test: two-hybrid library CCmax; conditions: mean of both orientations
T43 chain: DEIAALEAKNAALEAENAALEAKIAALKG

4H1821-AA = molecular target: T44, 4H1821-AA; test: two-hybrid library CCmax; conditions: mean of both orientations
T44 chain: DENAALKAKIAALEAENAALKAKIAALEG

Core_NNNN-es_KEEE = molecular target: T45, Core_NNNN-es_KEEE; test: two-hybrid library CCmax
T45 chain: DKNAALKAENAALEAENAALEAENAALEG

4H3438-AA = molecular target: T46, 4H3438-AA; test: two-hybrid library CCmax; conditions: mean of both orientations
T46 chain: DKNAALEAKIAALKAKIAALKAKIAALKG

4H2732-AA = molecular target: T47, 4H2732-AA; test: two-hybrid library CCmax; conditions: mean of both orientations
T47 chain: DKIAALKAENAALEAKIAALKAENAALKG

4H2343-AA = molecular target: T48, 4H2343-AA; test: two-hybrid library CCmax; conditions: mean of both orientations
T48 chain: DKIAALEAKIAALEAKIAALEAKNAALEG

4H452-AA = molecular target: T49, 4H452-AA; test: two-hybrid library CCmax; conditions: mean of both orientations
T49 chain: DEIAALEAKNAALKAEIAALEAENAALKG

4H3001-AA = molecular target: T50, 4H3001-AA; test: two-hybrid library CCmax; conditions: mean of both orientations
T50 chain: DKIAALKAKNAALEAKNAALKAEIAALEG

4H2330-AA = molecular target: T51, 4H2330-AA; test: two-hybrid library CCmax; conditions: mean of both orientations
T51 chain: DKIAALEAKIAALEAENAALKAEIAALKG

4H1930-AA = molecular target: T52, 4H1930-AA; test: two-hybrid library CCmax; conditions: mean of both orientations
T52 chain: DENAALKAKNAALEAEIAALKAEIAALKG

O1-bP = molecular target: T53, O1-bP; test: two-hybrid library CCNG1
T53 chain: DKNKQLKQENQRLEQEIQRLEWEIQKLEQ

Sequence of 4H_GCN4 (chain, as listed by the source): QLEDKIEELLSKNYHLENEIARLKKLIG

interaction score (O15-bP): -0.788
interaction score (O5-bP): -0.843
interaction score (O4-bP): -0.826
interaction score (O12-bP): -1.28
interaction score (O13-bP): -0.892
interaction score (O8-bP): -1.81
interaction score (O7-bP): -1.18
interaction score (O9-bP; mean of both orientations): 0.966
interaction score (O3-bP): -0.676
interaction score (O11-bP): -1.97
interaction score (O14-bP): -0.56
interaction score (O16-bP): -0.76
interaction score (O10-bP; mean of both orientations): -0.552
interaction score (O6-bP): -1.19
interaction score (O2-bP): 0.624
Binder: DKNKQLKQENQRLEQKIQRLKWKIQKLKQ [O10-bP]

interaction score (P6mSN): -0.793
interaction score (P4mSN): 0.374
interaction score (P8mSN): 0.0166
interaction score (P9mSN): -1.27
interaction score (P2mSN): -1.32
interaction score (P1mSN): -0.413
interaction score (P5mSN): -0.097
interaction score (P11mSN): 0.11
interaction score (P7mSN): -1.52
interaction score (P12mSN): 1.46
interaction score (P3mSN): -0.972
Binder: DENQSLEQEISQLEQEIQQLEQKNSELKY [P11mSN]

interaction score (4H3015-AA): -1.7
interaction score (4H56-AA): -1.76
interaction score (4H2124-AA): -1.72
interaction score (4H2931-AA): -1.83
interaction score (4H2165-AA): -1.25
interaction score (4H1765-AA): 2.4
interaction score (4H2774-AA): -1.4
interaction score (4H2592-AA): -1.67
interaction score (4H_APH): -2.38
interaction score (4H2466-AA): -1.7
interaction score (4H249-AA): -1.63
interaction score (4H_BCR): -1.93
interaction score (4H347-AA): -1.81
interaction score (4H_GCN4): -1.69
interaction score (4H2253-AA): -1.14
interaction score (4H3073-AA): -1.02
interaction score (4H1828-AA): -0.973
interaction score (GCN2_T): -1.28
interaction score (4H406-AA): -1.54
interaction score (4H1821-AA): -1.42
interaction score (Core_NNNN-es_KEEE): -0.679
interaction score (4H3438-AA): -0.901
interaction score (4H2732-AA): -1.76
interaction score (4H2343-AA): -1.45
interaction score (4H452-AA): -1.48
interaction score (4H3001-AA): -2.1
interaction score (4H2330-AA): -1.37
interaction score (4H1930-AA): -1.21
Binder: DENAALKAENAALKAKIAALEAKIAALEG [4H1765-AA]

interaction score (O15-bP): -1.88
interaction score (O5-bP): -1.22
interaction score (O4-bP): -1.05
interaction score (O12-bP): -1.11
interaction score (O13-bP): -0.754
interaction score (O8-bP): -1.95
interaction score (O7-bP): -1.06
interaction score (O9-bP): 1.31
interaction score (O3-bP): -1.35
interaction score (O11-bP): -0.513
interaction score (O14-bP): -1.51
interaction score (O16-bP): -0.714
interaction score (O10-bP): -0.164
interaction score (O1-bP): -0.355
interaction score (O6-bP): -0.442
interaction score (O2-bP): 1.06
Binder: DKNKQLKQENQRLEQEIQRLEWEIQKLEQ [O1-bP]
